Where two headings read alike, the source gives them in different places. Oligonucleotides are written 5' to 3', each unit as a sugar letter and its base; * is a phosphorothioate linkage, no mark a phosphodiester; rarer units and linkages stand in square brackets, end groups in braces. Plain capitals give the bases only. d = 2'-deoxy (DNA); r = 2'-OH (RNA); f = 2'-fluoro
B1: AMX205.H11: rRdY aptamer clone (nucleic acid)
chain: rGrGrArGdCrGdCrAdCdTdCrArGdCdCrAdCrGrGdCrAdCrGrAdCrGrGdTrGrAdTrGrGrAdTdTrArGdCrGdCrGrGdTrGdTdCrGrGdTrGrGdTrGdTdCrAdTdTdTdCrGrAdCdCdTdCdTdCdTrGdCdTrArGdC
B2: AMX205.F9: rRdY aptamer clone (nucleic acid)
chain: rGrGrArGdCrGdCrAdCdTdCrArGdCdCrAdCrGrGrArGdCrGdTdCrGrGdTrGrAdTrGrGrAdTdTrArGdCrGdCrGrGdCdTdCdCrGdTrGrGdTrAdCrGdCdCdTdTdTdCrGrAdCdCdTdCdTdCdTrGdCdTrArGdC
B3: AMX199.C4: DNA SELEX 1 aptamer clone (nucleic acid)
DNA: CTACCTACGATCTGACTAGCGGAATGAGGATGCTGATGGATTGCACAGGTCTGCTGGCTGCTTACTCTCATGTAGTTCC
modifications: DNA, backbone not given here
notes: DNA SELEX 1 aptamer clone
B4: AMX199.B3: DNA SELEX 1 aptamer clone (nucleic acid)
DNA: CTACCTACGATCTGACTAGCGGAATGAGAATGCTGATGGATTGCTCAGGTCTGCTGGCTGCTTACTCTCATGTAGTTCC
modifications: DNA, backbone not given here
notes: DNA SELEX 1 aptamer clone
B5: AMX199.D11: DNA SELEX 1 aptamer clone (nucleic acid)
DNA: CTACCTACGATCTGACTAGCGGAATGAGAATGCTGGTGGATTGCTCAGGTCTGCTGGCTGCTTACTCTCATGTAGTTCC
modifications: DNA, backbone not given here
notes: DNA SELEX 1 aptamer clone
B6: AMX206.F9: rRdY aptamer clone (nucleic acid)
chain: rGrGrArGdCrGdCrAdCdTdCrArGdCdCrAdCrGrGrArGdCrGdTdCrGrGdTrGrAdTrGrGrAdTdTrArGdCrGdCrGrGdCdTdCdCrGdTrGrGdTrAdCrAdCrAdTdTdTdCrGrAdCdCdTdCdTdCdTrGdCdTrArGdC
B7: AMX205.D11: rRdY aptamer clone (nucleic acid)
chain: rGrGrArGdCrGdCrAdCdTdCrArGdCdCrAdCrGrGdCrAdCrGrAdCrGrGdTrGrAdTrGrArAdTdTrArGdCrGdCrGrGdTrGdTdCrGrGdTrGrGdTrGdTdCrAdTdTdTdCrGrAdCdCdTdCdTdCdTrGdCdTrArGdC
B8: AMX206.E7: rRdY aptamer clone (nucleic acid)
chain: rGrGrArGdCrGdCrAdCdTdCrArGdCdCrAdCrGrGrArGdCrGdTdCrGrGdTrGrAdTrGrGrAdTdTrArGdCrGdCrGrGdCdTdCdCrGdTrGrGdTrAdCrAdCdCdTdTdTdCrGrAdCdCdTdCdTdCdTrGdCdTrArGdC
B9: AMX203.A1: rRdY aptamer clone (nucleic acid)
chain: rGrGrArGdCrGdCrAdCdTdCrArGdCdCrAdCrArGdTdTdCdTrGdTdCrGrGdTrGrAdTrGrArAdTdTrArGdCrGdCrGrGrGrArGdCdTrGdTrGrGrGrAdCrGdTdTdTdCrGrAdCdCdTdCdTdCdTrGdCdTrArGdC
B10: AMX205.H9: rRdY aptamer clone (nucleic acid)
chain: rGrGrArGdCrGdCrAdCdTdCrArGdCdCrAdCrGrAdCrGrGdTrGrAdTrGrGrAdTdTrArGdCrGdCrGrGdTrGrGrArGrArArGrAdTrGdCrGdCdTrGdTdTrGdTdTdTdCrGrAdCdCdTdCdTdCdTrGdCdTrArGdC
B11: AMX203.D6: rRdY aptamer clone (nucleic acid)
chain: rGrGrArGdCrGdCrAdCdTdCrArGdCdCrAdCrArGdTdTdCdTrGdTdCrGrGdTrGrAdTrGrArAdTdTrArGdCrGdCrGrArGrArGdCdTrGdTrGrGrGrAdCrGdTdTdTdCrGrAdCdCdTdCdTdCdTrGdCdTrArGdC
B12: AMX206.A10: rRdY aptamer clone (nucleic acid)
chain: rGrGrArGdCrGdCrAdCdTdCrArGdCdCrAdCrGrGdCrAdTrGrAdCrGrGdTrGrAdTrGrArAdTdTrArGdCrGdCrGrGdTrGdTdCrGrGdTrGrGdTrGdTdCrAdTdTdTdCrGrAdCdCdTdCdTdCdTrGdCdTrArGdC
B13: AMX198.G1: rRfY aptamer clone (nucleic acid)
chain: rGrGrArGfCrGfCrAfCfUfCrArGfCfCrAfCrArAfCrAfCfUrArAfUrGrGrGrGrArArArGfUfUfCrArArGrGrAfUfUfCfUfUrGrAfCfCrGrGfUrGfCrGfUfUfUfCrGrAfCfCfUfCfUfCfUrGfCfUrArGfC
B14: AMX206.H9: rRdY aptamer clone (nucleic acid)
chain: rGrGrArGdCrGdCrAdCdTdCrArGdCdCrAdCrGrGrArGdCrGdTdCrGrGdTrGrAdTrGrGrAdTdTrArGdCrGdCrGrGdTdTdCdCrGdTrGrGdTrAdCrAdCdCdTdTdTdCrGrAdCdCdTdCdTdCdTrGdCdTrArGdC
B15: AMX201.G1: rRfY aptamer clone (nucleic acid)
chain: rGrGrArGfCrGfCrAfCfUfCrArGfCfCrAfCrGfCfUfCrGrGfUrGrGrGrGrArArAfUfUfUfUrArGfCfCfUrArAfUfUrGrGfCfUrAfCfUfUrGfUrGfCrGfUfUfUfCrGrAfCfCfUfCfUfCfUrGfCfUrArGfC
B16: AMX206.D7: rRdY aptamer clone (nucleic acid)
chain: rGrGrArGdCrGdCrAdCdTdCrArGdCdCrAdCrGrGdCrAdCrGrAdCrGrGdTrGrAdTrGrArAdTdTrArGdCrGdCrGrGdTrGdTdCrGrGdTrGrGdTrGdTdTrAdTdTdTdCrGrAdCdCdTdCdTdCdTrGdCdTrArGdC

Assays:
[1] = target: T1, human vWF A1 domain (SEQ ID NO 5) (Homo sapiens, UniProt P04275, T1381A); test: 3-point dot blot screen, human vWF A1 domain; format: binding; conditions: 100 nM human vWF A1 domain
T1 sequence (P04275 with tags, fused parts or gaps T1381A): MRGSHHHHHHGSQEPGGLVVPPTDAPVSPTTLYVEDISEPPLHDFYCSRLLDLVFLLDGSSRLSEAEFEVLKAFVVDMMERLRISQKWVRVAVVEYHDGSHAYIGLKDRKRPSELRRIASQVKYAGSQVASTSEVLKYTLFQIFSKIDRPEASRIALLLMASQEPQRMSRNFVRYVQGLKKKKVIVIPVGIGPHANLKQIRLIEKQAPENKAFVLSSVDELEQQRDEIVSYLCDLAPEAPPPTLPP
How it was run: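 Values are ratios of aptamer fraction retained on nitrocellulose with 100 nM vWF A1 domain (human or rabbit) versus a no-protein control. Unique clones from rounds 9 and 12 pools were transcribed, desalted and 5'-32P labeled before this three-point dot blot screen.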

[2] = system: rabbit vWF A1 domain (SEQ ID NO 6); test: 3-point dot blot screen, rabbit vWF A1 domain; format: binding; conditions: 100 nM rabbit vWF A1 domain, ratio of fraction bound with target to without
Chain of rabbit vWF A1 domain (SEQ ID NO 6) (as listed by the source): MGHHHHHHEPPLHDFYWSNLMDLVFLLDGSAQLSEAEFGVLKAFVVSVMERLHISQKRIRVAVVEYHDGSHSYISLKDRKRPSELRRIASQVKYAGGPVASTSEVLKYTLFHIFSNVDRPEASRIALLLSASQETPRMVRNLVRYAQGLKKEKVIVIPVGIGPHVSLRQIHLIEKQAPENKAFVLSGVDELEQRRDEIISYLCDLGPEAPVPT
How it was run: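 Rabbit vWF A1 domain binding was screened by dot blot using three conditions: no target protein, human vWF, and rabbit vWF A1 domain at 100 nM (20 nM in the screen run twice). Radiolabeled aptamer bound to nitrocellulose was quantified, and results are expressed as the ratio of bound fraction with protein to bound fraction without protein.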

[3] = system: full length human vWF binding to lyophilized platelets; test: Full length human von Willebrand Factor platelet binding assay (FACS); format: cell-based; conditions: 5 nM full length human vWF, lyophilized platelets, botrocetin; both bounds in nM
Description: The amount of vWF bound to fixed platelets can be measured with an antibody to vWF. The fluorescence signal from bound antibody incubated with a fluorescein conjugated secondary antibody is then detected and quantified by flow cytometry. The ability of an aptamer of the invention to block vWF binding to platelets is correlated with a reduction in fluorescence signal.
Aptamer potency to block human vWF binding to lyophilized platelets was assessed by flow cytometric analysis. Titrations of aptamers (0 nM, 0.1 nM to 1000 nM) were pre-incubated briefly with 5 nM of full length human vWF in FACS buffer (PBS plus 0.5% bovine serum albumin) at room temperature in a volume of 50 uL. Another 50 uL containing 5 uL of lyophilized platelets plus 1 uL of 0.1 U/uL of botrocetin in FACS buffer was added to aptamer/vWF. This reaction was allowed to proceed for 15 minutes at 37 degrees C. after which 200 uL of FACS buffer was added. Platelets were collected by a 6 minute spin at 1470 RCF and the supernatant was discarded. The pellets were resuspended in 100 uL of FACS buffer containing a 1:100 dilution of anti-vWF antibody and were incubated at room temperature for 30 minutes. After dilution with 200 uL of FACS buffer, the platelets were spun at 1470 RCF for 6 minutes and the supernatant was discarded. The pellets were resuspended in a 1:100 solution of anti-IgG2a-FITC antibody and were incubated in the dark for 30 minutes at room temperature. The entire 100 uL was diluted into 200 uL of FACS buffer and analyzed immediately by flow cytometric analysis in the FACSCAN. Artifactual data from contaminating debris was eliminated from the analysis by drawing a gate around the population of single and aggregated platelets. Mean fluorescent intensity (“MFI”) readings were quantified for each sample analyzed by flow cytometry. Background MFI was subtracted from all data points. Percent inhibition was reported by calculating the percent value of binding of full length human vWF to platelets in the presence of aptamer at a given concentration relative to binding in the absence of any aptamer (see FIG. 7). IC50 values were determined by fitting the percent inhibition of vWF binding to platelets as a function of aptamer concentration to the equation: % inhibition=% inhibitionmax/(1+IC50/aptamer conc.)

[4] = target: T1, human vWF A1 domain (SEQ ID NO 5); test: dot blot KD determination, human vWF A1 domain
Description: For KD determination, aptamers transcripts were purified on 10% denaturing polyacrylamide gels, 5′ end labeled with γ-^32P ATP.
For KD determination, aptamers were purified on denaturing polyacrylamide gels and 5′-end labeled with γ-^32P ATP. A 6 point protein titration of human vWF A1 domain (SEQ ID NO 5) was used in the dot blot assay (333 nM, 100 nM, 33 nM, 10 nM, 3 nM, 0 nM) in 1×DPBS plus 0.1 mg/mL BSA at room temperature for 30 minutes. KD values were calculated by fitting the equation y=(max/(1+K/protein))+yint using KaleidaGraph (KaleidaGraph v. 3.51, Synergy Software).
KD values were calculated by fitting the equation y=(max/(1+K/protein))+yint using KaleidaGraph (KaleidaGraph v. 3.51, Synergy Software).
All minimer sequences were transcribed, gel-purified on 15% denaturing polyacrylamide gels, 5-^32 end-labeled with γ^32P ATP, and then desalted using two Centri-Spin 10 columns (Princeton Separations Cat. #CS-101, Adelphia, N.J.). For KD determination, minimer transcripts were tested for direct binding to full length human vWF (SEQ ID NO 7), human vWF A1 domain (SEQ ID NO 5), and rabbit vWF A1 domain (SEQ ID NO 6) using an 8 point protein titration from 0-300 nM (3 fold dilutions) in 1× Dulbecco's PBS containing 0.1 mg/mL BSA (in a final volume of 50 uL) for 30 minutes at room temperature and then applied to a nitrocellulose and nylon filter sandwich in a dot blot apparatus (Schleicher and Schuell, Keene, N.H.). KD values were calculated by fitting the equation y=(max/(1+K/protein))+yint using KaleidaGraph (KaleidaGraph v. 3.51, Synergy Software).
All minimer DNA sequences were chemically synthesized, 5-^32P end-labeled with γ-^32P ATP, and then desalted using two Centri-Spin 10 columns (Princeton Separations, Cat. #CS-101, Adelphia, N.J.). […] KD values were calculated by fitting the equation y=(max/(1+K/protein))+yint using KaleidaGraph (KaleidaGraph v. 3.51, Synergy Software).

[5] = rRdY aptamers, ratio of fraction bound with target to without
[6] = read-out: Human A1 KD, rRdY aptamers, 6 point protein titration
[7] = DNA SELEX 1 aptamers, ratio of fraction bound with target to without
[8] = read-out: Human A1 KD, DNA SELEX 1 aptamers, competition dot blot, 100 nM protein, cold competitor titration
[9] = rRfY aptamers, ratio of fraction bound with target to fraction bound without target
[10] = read-out: human A1 KD, rRfY aptamers, 8 point titration of human vWF A1 domain

Row | Molecule | Screen- Human/No Protein [1, 5] | Screen- Rabbit/No Protein ([2]; rRdY aptamers) | Inhibition of full length hVWF binding in FACS assay, IC50 range [3] | Kd [4, 6] [nM] | Screen- Human/No Protein [1, 7] | Screen- Rabbit/No Protein ([2]; DNA SELEX 1 aptamers) | Kd [4, 8] [nM] | Screen- Human/No Protein [1, 9] | Screen- Rabbit/No Protein ([2]; rRfY aptamers) | Kd [4, 10] [nM]
1 | B1 | 2.18 | 2.41 | no activity | 144 | – | – | – | – | – | –
2 | B2 | 2.22 | 2.47 | no activity | 145 | – | – | – | – | – | –
3 | B3 | – | – | – | – | 3.60 | 2.85 | 34 | – | – | –
4 | B4 | – | – | – | – | 1.76 | 1.99 | 30 | – | – | –
5 | B5 | – | – | – | – | 4.19 | 3.42 | 30 | – | – | –
6 | B6 | 2.98 | 3.00 | no activity | 139 | – | – | – | – | – | –
7 | B7 | 2.22 | 2.07 | no activity | 124 | – | – | – | – | – | –
8 | B8 | 2.11 | 2.26 | no activity | 151 | – | – | – | – | – | –
9 | B9 | 2.99 | 2.67 | no activity | 1150 | – | – | – | – | – | –
10 | B10 | 2.36 | 3.14 | no activity | 178 | – | – | – | – | – | –
11 | B11 | 1.92 | 1.57 | no activity | 523 | – | – | – | – | – | –
12 | B12 | 2.62 | 2.58 | no activity | 111 | – | – | – | – | – | –
13 | B13 | – | – | no activity | – | – | – | – | 1.89 | 1.90 | 45
14 | B14 | 1.98 | 2.31 | no activity | 109 | – | – | – | – | – | –
15 | B15 | – | – | no activity | – | – | – | – | 2.14 | 2.20 | 190
16 | B16 | 2.19 | 2.08 | no activity | 187 | – | – | – | – | – | –
